Results on 1 compound are retold here after PMC7591906, “pHLIP ICG for delineation of tumors and blood flow during fluorescence-guided surgery” (Scientific Reports, 2020).

Peptide text beside a SMILES is read from it. * marks the point of attachment. X1 = CC1(C)C(/C=C/C=C/C=C/C=C2/N(CCCCCC(=O)NCCN3C(=O)CC(*)C3=O)c3ccc4ccccc4c3C2(C)C)=[N+](CCCCS(=O)(=O)[O-])c2ccc3ccccc3c21 A value given as a limit tells only on which side of the number the result lay.

Data set [1] in a line: 7-day repeat i.v. toxicity in B6D2F1 mice (GLP). The data set is classed as in vivo. Particulars: 13.6 mg/kg/day i.v. for 7 days, incidence and severity decreasing over time. The procedure: The purpose of this GLP study performed at MSK was to assess the acute and delayed toxicity of a repeat administration of pHLIP ICG in mice. The pHLIP ICG was administered for 7 consecutive days.
Throughout the study, body weights, clinical signs, clinical pathology (hematology and clinical chemistry), and histopathology were collected.

Data set [2] is described as follows: pH-dependent insertion into POPC liposomes (circular dichroism at 222 nm). Conditions: 5 µM pHLIP ICG, 750 µM POPC liposomes, CD 222 nm, 25.0°C, Henderson-Hasselbalch fit. It is filed as physicochemical. The procedure: POPC (1-palmitoyl-2-oleoyl-sn-glycero-3-phosphocholine, Avanti Polar Lipids, Inc.) liposomes were used in biophysical measurements to mimic cell membranes and investigate the pHLIP ICG interactions with lipid bilayers. Large unilamellar vesicles (LUVs) were prepared by extrusion. POPC dissolved in chloroform was desolvated in a rotary evaporator and placed under high vacuum for 2 hours to create a phospholipid film. Lipids were then rehydrated in phosphate buffer (pH8) and repeatedly extruded through membranes with a pore size of 100 nm to make LUVs.
Circular dichroism (CD) measurements were employed to monitor the pH-dependent insertion of pHLIP ICG into the membrane of POPC liposomes and the formation of helical structure. […] CD spectra were recorded from 200 to 260 nm with steps of 1 nm. The pH-dependent insertion of pHLIP ICG into the lipid bilayer of POPC liposomes was studied by monitoring the changes in the molar ellipticity (measured in millidegrees) at 222 nm as a function of pH. After the addition of aliquots of citric acid, the pHs of solutions containing 5 μM pHLIP ICG and 750 µM POPC liposomes were measured using an Orion PerHecT ROSS Combination pH Micro Electrode and an Orion Dual Star pH and ISE Benchtop Meter before and after each spectrum measurement to ensure that equilibrium is achieved. […]

Data set [3] is described as follows: Biodistribution, %ID/g estimated from tissue/organ homogenates. It is filed as in vivo, BALB/c mice. Conditions: BALB/c, mouse, small and large intestines, bone, skin, muscle, prostate, iv, 0.5 mg/kg; all time points; estimate; read-out: Amount in small and large intestines, bone, skin and muscle (and prostate). The procedure:
The fluorescence signals in organs and tissue were also measured in the tissue/organ homogenates and compared with the signals from the control tissue/organ homogenates (collected from control mice) mixed with known amounts of pHLIP ICG. Samples of about 100 mg of tissue were homogenized with 2.5x (about 250 µL) volumes of DMSO using BioMasher II disposable homogenizers (DiagnoCine, LLC). 30 µl of each homogenate was placed into a 384-well plate and imaged using an Odyssey IR scanner (Li-Cor Biosciences). Tissue homogenates of control mice mixed with known concentrations of pHLIP ICG were used to establish the calibration curve.

In the case of `CC(C)C[C@H](NC(=O)[C@H](Cc1ccc(O)cc1)NC(=O)[C@H](C)NC(=O)[C@H](CCCNC(=N)N)NC(=O)[C@H](Cc1c[nH]c2ccccc12)NC(=O)[C@@H]1CCCN1C(=O)[C@H](CC(N)=O)NC(=O)[C@H](CCC(N)=O)NC(=O)[C@H](CC(=O)O)NC(=O)[C@H](CC(=O)O)NC(=O)[C@H](CSC1CC(=O)N(CCNC(=O)CCCCCN2/C(=C/C=C/C=C/C=C/C3=[N+](CCCCS(=O)(=O)[O-])c4ccc5ccccc5c4C3(C)C)C(C)(C)c3c2ccc2ccccc32)C1=O)NC(=O)[C@H](C)N)C(=O)N[C@@H](CC(=O)O)C(=O)N[C@@H](CC(C)C)C(=O)N[C@@H](CC(C)C)C(=O)N[C@@H](Cc1ccccc1)C(=O)N1CCC[C@H]1C(=O)N[C@H](C(=O)N[C@@H](CC(=O)O)C(=O)N[C@H](C(=O)N[C@@H](CC(C)C)C(=O)N[C@@H](CC(C)C)C(=O)N[C@@H](CC(C)C)C(=O)N[C@@H](CC(=O)O)C(=O)N[C@@H](CC(C)C)C(=O)N[C@@H](CC(C)C)C(=O)N[C@@H](Cc1c[nH]c2ccccc12)C(=O)N[C@@H](C)C(=O)O)[C@@H](C)O)[C@@H](C)O` (stereo partly drawn) [pHLIP ICG] (H-AC(X1)DDQNPWRAYLDLLFPTDTLLLDLLWA-OH), the Toxicity finding result in data set [1] is reported as “may be associated with germ cell degeneration in males”. Also, the “Midpoint of the transition (pK) of insertion into liposomes” value in data set [2] worked out at 6.3 pH. Besides, the tissue uptake in data set [3] is under 2 %ID/g.
